Results: US20240247066A1 (published 2024)

B1: N5 (scFv)
chain: EVQLLESGGGLVQPGGSLRLSCAASGFTFSTYQMSWVRQAPGKGLEWVSGIVSSGGSTAYADSVKGRFTISRDNSKNTLYLQMNSLRAEDTAVYYCAGELLPFYGMDYWGQGTTVTVSQSELTQPRSVSGSPGQSVTISCTGTLRDVGGYNYVSWYQQHPGKAPKLIIHDVIERSSGVPDRFSGSKSGNTASLTISGLQAEDEADYYCWSAAMAYGVFGTGTDVTVL
B2: IgG2a #13 (antibody, V domains shown)
VH: EVLLQQSGPELVKPGASVKIPCKASGYTFTDYYMDWVKQSHGKSLEWIGLINPNNGGTVYNQKFKGKATLTVDKSSSAAYMEVRSLTSEDTAVYYCARKPYTGHPAWFAYWGQGTLVTVSA
VL: DIQVTQSSSSFSVSLGDRVTITCKASEDIYNRLAWYQQKPGNAPRLLISGATSLETGVPDRFSGSGSRKDYTLIITSLQTEDVATYYCQQYYAFPLTFGAGTKLELK

What was measured:
NY-ESO1/A2 = NY-ESO1/A2 (;human, UniProt A*02:01, biotin on the biotinylation tag (BirA)); assay: SPR
Trp2/H-2Kb = Trp2/H-2Kb (;mouse, biotin on the biotinylation tag (BirA)); assay: SPR

Kd (NY-ESO1/A2) [nM]	Kd (Trp2/H-2Kb) [nM]	Binder
2	–	B1
–	2.5	B2
